No end group written: not given here.
Key:
Assay in all cases: ELISA; biotinylated HBc87-95 on 96-well streptavidin plates; serial dilutions of gp96 0.03–200 μg/mL in 20 mM HEPES pH 7.2, 20 mM NaCl, 2 mM MgCl2, 100 mM KCl, 1.5 h; detected with rat anti-grp94 antibody; 300 μM radicicol as inhibitor
Details in all cases: both partners purified
[1] = molecular target: T1, recombinant wild-type gp96 (gp96-wt), His-tagged (human, UniProt P14625 22-803, FITC label on the portion used for flow cytometry (sites not given))
T1 construct: human gp96 (GRP94), mature protein; cDNA in pET28a(+) subcloned with its His tag into pFastBac1; the 3' primer ends at ...EKDEL stop; The tag's end is read from the printed sense primer (MGSSHH..., as in pET28a); Unlabelled in the co-IP and ELISA, FITC-labelled in flow cytometry; also called FITC-gp96-wt; glucose-regulated protein 94; source: baculovirus (Bac-to-Bac, pFastBac1), purified …
T1 sequence (P14625 22-803): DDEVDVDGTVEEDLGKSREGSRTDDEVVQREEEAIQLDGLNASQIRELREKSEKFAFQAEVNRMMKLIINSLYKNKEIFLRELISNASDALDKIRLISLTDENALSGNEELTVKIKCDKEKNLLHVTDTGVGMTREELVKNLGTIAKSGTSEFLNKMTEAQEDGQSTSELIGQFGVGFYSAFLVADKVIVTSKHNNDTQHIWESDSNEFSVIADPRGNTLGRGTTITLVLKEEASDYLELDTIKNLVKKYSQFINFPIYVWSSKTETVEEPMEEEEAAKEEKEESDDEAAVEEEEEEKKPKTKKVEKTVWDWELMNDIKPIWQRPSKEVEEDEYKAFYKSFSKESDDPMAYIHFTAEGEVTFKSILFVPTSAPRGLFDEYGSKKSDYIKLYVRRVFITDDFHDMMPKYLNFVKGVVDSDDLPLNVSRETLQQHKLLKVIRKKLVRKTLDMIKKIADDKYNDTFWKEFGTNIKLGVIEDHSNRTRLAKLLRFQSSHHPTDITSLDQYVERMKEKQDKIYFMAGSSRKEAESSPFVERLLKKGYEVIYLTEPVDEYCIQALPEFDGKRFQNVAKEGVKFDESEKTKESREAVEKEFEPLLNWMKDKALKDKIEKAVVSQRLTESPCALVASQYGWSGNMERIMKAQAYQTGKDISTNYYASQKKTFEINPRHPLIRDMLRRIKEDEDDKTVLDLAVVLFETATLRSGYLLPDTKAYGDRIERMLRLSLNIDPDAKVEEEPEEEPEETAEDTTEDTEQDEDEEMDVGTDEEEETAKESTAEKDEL

[2] = molecular target: T2, gp96 with Ala substitutions at the conserved residues in the first half of the CBD (gp96-mut), His-tagged (human, UniProt P14625 22-803, GWSGNMER (653-660) to AASAAAAA, read from the printed gp96-mut primer, FITC label on the portion used for flow cytometry (sites not given))
T2 construct: human gp96 (GRP94), mature protein, with Ala substitutions in the GWXGNMER motif of the CBD; positions follow the legend's 653-660 for the same eight residues deleted in gp96-ΔCBD; also called mutated gp96; mutant gp96; source: baculovirus (Bac-to-Bac, pFastBac1), purified (Ni-sepharose, Hitrap Q HP, Superdex 200)
T2 sequence (P14625 other isoform, or with tags, fused parts or gaps with the stated changes): as the sequence (P14625 22-803) above, with G632A, W633A, G635A, N636A, M637A, E638A, R639A counted along it

[3] = molecular target: T3, native mouse gp96 (mgp96) (mouse, UniProt P08113 22-802)
T3 construct: gp96 (GRP94, endoplasmin) purified from mouse liver; also called native gp96; source: purified from healthy mouse livers
T3 sequence (P08113 22-802): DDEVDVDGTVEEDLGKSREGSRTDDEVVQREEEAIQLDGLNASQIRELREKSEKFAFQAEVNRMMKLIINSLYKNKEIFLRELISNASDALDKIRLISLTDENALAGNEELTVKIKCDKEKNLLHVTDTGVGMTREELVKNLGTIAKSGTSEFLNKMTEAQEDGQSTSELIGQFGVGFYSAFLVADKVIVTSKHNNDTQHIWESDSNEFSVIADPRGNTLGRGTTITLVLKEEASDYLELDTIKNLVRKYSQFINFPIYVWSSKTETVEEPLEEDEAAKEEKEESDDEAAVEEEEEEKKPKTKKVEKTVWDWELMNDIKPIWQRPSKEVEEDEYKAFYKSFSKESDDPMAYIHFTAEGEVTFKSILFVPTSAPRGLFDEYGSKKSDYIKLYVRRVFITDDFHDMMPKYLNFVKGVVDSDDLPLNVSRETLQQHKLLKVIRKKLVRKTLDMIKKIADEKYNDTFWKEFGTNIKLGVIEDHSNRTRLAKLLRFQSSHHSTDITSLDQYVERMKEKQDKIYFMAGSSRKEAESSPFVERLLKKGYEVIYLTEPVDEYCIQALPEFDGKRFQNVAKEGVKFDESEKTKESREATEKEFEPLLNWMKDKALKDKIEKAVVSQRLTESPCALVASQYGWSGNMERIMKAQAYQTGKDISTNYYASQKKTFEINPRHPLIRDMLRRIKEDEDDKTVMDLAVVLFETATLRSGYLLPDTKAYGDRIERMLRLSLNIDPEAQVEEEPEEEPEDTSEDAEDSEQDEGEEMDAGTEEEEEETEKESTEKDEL

Measured: binding result

B1: biotinylated peptide HBc87-95 (peptide)
peptide: SYVNTNMGL
modifications: also: biotinylated, position not given here
notes: also called HBcAg_(87–95); source: synthetic peptide (GL Biochem Ltd.)
binds: all assays above
